Here are results for 2 proteins from publication PMC9653487, “Structural basis for mechanotransduction in a potassium-dependent mechanosensitive ion channel” (Nature Communications, 2022).

Residue numbers refer to the chain shown, from its start. Numbers in names are those of the source.

Series [1] concerns the molecule itself. As to the kind of experiment: cryo-EM structure; single-particle cryo-EM of EcMscK G924S in 0.02% GDN, 20 mM Tris-HCl pH 8.0, 150 mM NaCl or 150 mM KCl (datasets combined); refined with C7 symmetry; closed, intermediate and open classes.
Series [2] concerns the molecule itself. The series is described as follows: cryo-EM structure; single-particle cryo-EM of WT EcMscK in 0.02% GDN, 20 mM Tris-HCl pH 8.0, 150 mM NaCl; refined with C7 symmetry.

The term stoichiometry N denotes a count of units in the complex or per binding partner.

B1: E. coli MscK (EcMscK) G924S gain-of-function mutant channel (natural protein, UniProt P77338 34-1120, looked up)
chain: RASSNGDLPTKADLQAQLDSLNKQKDLSAQDKLVQQDLTDTLATLDKIDRIKEETVQLRQKVAEAPEKMRQATAALTALSDVDNDEETRKILSTLSLRQLETRVAQALDDLQNAQNDLASYNSQLVSLQTQPERVQNAMYNASQQLQQIRSRLDGTDVGETALRPSQKVLMQAQQALLNAEIDQQRKSLEGNTVLQDTLQKQRDYVTANSARLEHQLQLLQEAVNSKRLTLTEKTAQEAVSPDEAARIQANPLVKQELEINQQLSQRLITATENGNQLMQQNIKVKNWLERALQSERNIKEQIAVLKGSLLLSRILYQQQQTLPSADELENMTNRIADLRLEQFEVNQQRDALFQSDAFVNKLEEGHTNEVNSEVHDALLQVVDMRRELLDQLNKQLGNQLMMAINLQINQQQLMSVSKNLKSILTQQIFWVNSNRPMDWDWIKAFPQSLKDEFKSMKITVNWQKAWPAVFIAFLAGLPLLLIAGLIHWRLGWLKAYQQKLASAVGSLRNDSQLNTPKAILIDLIRALPVCLIILAVGLILLTMQLNISELLWSFSKKLAIFWLVFGLCWKVLEKNGVAVRHFGMPEQQTSHWRRQIVRISLALLPIHFWSVVAELSPLHLMDDVLGQAMIFFNLLLIAFLVWPMCRESWRDKESHTMRLVTITVLSIIPIALMVLTATGYFYTTLRLAGRWIETVYLVIIWNLLYQTVLRGLSVAARRIAWRRALARRQNLVKEGAEGAEPPEEPTIALEQVNQQTLRITMLLMFALFGVMFWAIWSDLITVFSYLDSITLWHYNGTEAGAAVVKNVTMGSLLFAIIASMVAWALIRNLPGLLEVLVLSRLNMRQGASYAITTILNYIIIAVGAMTVFGSLGVSWDKLQWLAAALSVGLSFGLQEIFGNFVSGLIILFERPVRIGDTVTIGSFSGTVSKIRIRATTITDFDRKEVIIPNKAFVTERLINWSLTDTTTRLVIRLGVAYGSDLEKVRKVLLKAATEHPRVMHEPMPEVFFTAFGASTLDHELRLYVRELRDRSRTVDELNRTIDQLCRENDINIAFNQLEVHLHNEKGDEVTEVKRDYKGDDPTPAVG
notes: E. coli mechanosensitive channel MscK, 1120 amino acids, full length, with the point mutation G924S made by site-directed mutagenesis; Homoheptamer; closed, intermediate and open conformations came from the same sample; A few residues of the PreScission site are left at the C-terminus after cleavage; The deposited models lack unresolved parts, and some segments are polyalanine; also called G924S …
Take B1: the “stoichiometry N” value in series [1] worked out at 7.

B2: E. coli MscK (EcMscK), full-length wild-type channel (natural protein, UniProt P77338 34-1120, looked up)
chain: B1 chain with S891G
notes: E. coli mechanosensitive channel MscK, 1120 amino acids, full length, codon-optimized synthetic DNA; Homoheptamer; A few residues of the PreScission site are left at the C-terminus after cleavage; also called WT EcMscK; WT channel; not shown: GFP, C-terminal, cleaved; His10, C-terminal, cleaved
Turning to B2, the binding result in series [2] is given as “binds”.
